Reference: patent publication US20210171638A1 (HISUN BIORAY PHARMACEUTICAL, published 2021)

Key:
Human PD-L1 (R&D) = biological target: T1, Human PD-L1 (R&D) (human, UniProt Q9NZQ7 19-239, limits assumed); test: ELISA, human PD-L1 coated at 5 µg/ml, anti-human Fc-HRP, OD600
T1 construct: Bought recombinant protein coated on ELISA plates; construct not described; also called human PD-L1 protein
Protocol: (§1) In this Example, ELISA assay was used to determine binding of the candidate antibody to human, monkey, and mouse PD-L1.
(§2) After incubation overnight at 4° C., the coating solution was discarded the next day and washed with PBST. 200 μl of BSA blocking solution was added into each well and incubated for 1 h at room temperature. […] Then 100 μl of antibody was added into each well and incubated for 2 h at room temperature. Washing was performed three times with PBST, and anti-human Fc-HRP antibody (Sino Biological) was added and incubated for 1 h at room temperature. Finally, each well was washed four times with PBST, TMB color developing solution (Beijing Tiangen BioTech) was added, and the color was developed at room temperature. After the color development was stopped, the OD value was determined with a microplate reader at 600 nm.

Mouse PD-L1 (R&D) = biological target: T2, Mouse PD-L1 (R&D) (mouse, UniProt Q9EP73 19-238, limits assumed); test: ELISA, mouse PD-L1 coated at 5 µg/ml, anti-human Fc-HRP, OD600
T2 construct: Bought recombinant protein coated on ELISA plates; construct not described; also called mouse PD-L1 protein
T2 sequence (Q9EP73 19-238 limits assumed): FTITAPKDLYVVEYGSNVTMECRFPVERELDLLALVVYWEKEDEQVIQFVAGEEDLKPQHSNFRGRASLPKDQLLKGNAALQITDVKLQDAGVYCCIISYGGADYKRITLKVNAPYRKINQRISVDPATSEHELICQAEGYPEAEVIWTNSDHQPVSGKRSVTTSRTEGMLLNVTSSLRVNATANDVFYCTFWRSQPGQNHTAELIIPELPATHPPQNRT
Protocol: as §1, §2

Monkey PD-L1 (R&D) = biological target: T3, Monkey PD-L1 (R&D) (monkey); test: ELISA, monkey PD-L1 coated at 5 µg/ml, anti-human Fc-HRP, OD600
T3 construct: Bought recombinant protein coated on ELISA plates; construct and monkey species not described; also called monkey PD-L1 protein
Protocol: as §1, §2

[1] = biological target: T4, Recombinant His-tagged PD-L1 (Homo sapiens (Human), UniProt Q9NZQ7 19-238); test: BIAcore SPR, antibody captured by anti-human IgG on CM5 chip, His-tagged PD-L1 as analyte, 1:1 fit
T4 construct: also called target antigen
T4 sequence (Q9NZQ7 19-238 limits assumed): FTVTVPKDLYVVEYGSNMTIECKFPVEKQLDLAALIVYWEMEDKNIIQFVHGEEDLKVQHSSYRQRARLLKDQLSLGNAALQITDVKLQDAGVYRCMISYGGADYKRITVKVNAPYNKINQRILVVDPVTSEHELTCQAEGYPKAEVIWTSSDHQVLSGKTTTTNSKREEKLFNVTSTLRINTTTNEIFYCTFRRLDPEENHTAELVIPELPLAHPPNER
Protocol: In this Example, BIAcore is used to determine antibody affinity. In this experiment, the human antibody capture kit (GE, BR100839) was used to couple the anti-human IgG antibody to the S series CM5 sensor chip (GE, BR100530) through amino before the ligand and analyte binding. Recombinant anti-PD-L1 antibodies, B10, B11, and H12 were diluted with HBS-EP+Buffer as ligands. The recombinant His-tagged PD-L1 was diluted with HBS-EP+Buffer to 8 μg/ml, 4 μg/ml, 1.6 μg/ml, 0.64 μg/ml, 0.256 μg/ml and 0.102 μg/ml as analytes. In Biacore Wizard mode, affinity analysis experiments were performed in a multi-cycle manner. The test of each sample included 3 Start up, 1 zero concentration control, 6 gradient concentration samples and 1 repeated concentration sample. After each cycle, 10 mM Glycine HCl PH2.1 regeneration solution is used to regenerate the chip. Each concentration cycle of the analyte was set as follows: capture time 180s, ligand solution flow rate 10 μl/min, ligand and analyte binding time 180 s, analyte solution flow rate 30 μl/min; dissociation time 2400 s. Raw data was introduced into the analysis software, the zero concentration control was subtracted, and the reference channel was subtracted to eliminate the volume effect. The 1:1 binding mode in the Kinetics analysis method was used to fit the graph and the affinity data of the antigen antibody was calculated by regression analysis using the analysis software based on the binding curve.

hPD-L1-Fc protein (R&D) [2] = biological target: T5, hPD-L1-Fc protein (R&D) (human, UniProt Q9NZQ7 19-239); test: blocking ELISA: hPD-L1-Fc coated at 1 µg/mL, B11 dilutions mixed 1:1 with CD80-Biotin (0.25 µg/mL), avidin-HRP, OD450
T5 construct: construct not described; not shown: Fc part
T5 sequence (Q9NZQ7 19-239 limits assumed): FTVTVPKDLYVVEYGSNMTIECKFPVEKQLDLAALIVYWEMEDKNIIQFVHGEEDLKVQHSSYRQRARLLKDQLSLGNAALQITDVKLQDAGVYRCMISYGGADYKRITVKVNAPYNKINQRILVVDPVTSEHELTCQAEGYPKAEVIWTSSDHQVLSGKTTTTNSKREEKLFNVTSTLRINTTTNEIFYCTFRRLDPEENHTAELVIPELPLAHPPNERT

hPD-L1-Fc protein (R&D) [3] = biological target: T5, hPD-L1-Fc protein (R&D); test: blocking ELISA: hPD-L1-Fc coated at 1 µg/mL, B11 dilutions mixed 1:1 with hPD-1-Fc-Biotin (0.25 µg/mL), avidin-HRP, OD450

T1 sequence (Q9NZQ7 19-239 limits assumed): as above

B1: Anti-PD-L1 Antibody B11 (antibody, V domains shown)
VH: EVQLVESGGGLVQPGGSLRLSCAASGFTFSETWLHWVRQAPGKGLEWVAWVSPFGGSTYYADSVKGRFTISADTSKNTAYLQMNSLRAEDTAVYYCARRHWPGGFDYWGQGTLVTVSS
VL: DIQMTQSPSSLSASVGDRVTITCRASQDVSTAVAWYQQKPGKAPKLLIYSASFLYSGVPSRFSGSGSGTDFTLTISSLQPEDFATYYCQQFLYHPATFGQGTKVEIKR
notes: also called HZPDL1-B11
- EC50 (Human PD-L1 (R&D)): 1.03 pM
- EC50 (Mouse PD-L1 (R&D)): 0.407 pM
- EC50 (Monkey PD-L1 (R&D)): 0.495 pM
- Kd [1]: 0.629 nM
- koff [1]: 0.000857 s⁻¹
- kon [1]: 1.36e+06 M⁻¹ s⁻¹
- IC50 (read off the curve) (hPD-L1-Fc protein (R&D) [2]): ~0.2 µg/mL
- IC50 (read off the curve) (hPD-L1-Fc protein (R&D) [3]): ~0.3 µg/mL

B2: Anti-PD-L1 Antibody B10 (antibody, V domains shown)
VH: not shown
VL: DIQMTQSPSSLSASVGDRVTITCRASQDVSTAVAWYQQKPGKAPKLLIYSASFLYSGVPSRFSGSGSGTDFTLTISSLQPEDFATYYCQQFIFHPATFGQGTKVEIKR
notes: also called HZPDL1-B10
- EC50 (Human PD-L1 (R&D)): 1.97 pM
- EC50 (Mouse PD-L1 (R&D)): 0.906 pM
- EC50 (Monkey PD-L1 (R&D)): 2.65 pM
- Kd [1]: 1.64 nM
- koff [1]: 0.00236 s⁻¹
- kon [1]: 1.44e+06 M⁻¹ s⁻¹

B3: Anti-PD-L1 Antibody H12 (antibody, V domains shown)
VH: EVQLVESGGGLVQPGGSLRLSCAASGFTFSESWLHWVRQAPGKGLEWVAWVTPYGGSTYYADSVKGRFTISADTSKNTAYLQMNSLRAEDTAVYYCARRHWPGGFDYWGQGTLVTVSS
VL: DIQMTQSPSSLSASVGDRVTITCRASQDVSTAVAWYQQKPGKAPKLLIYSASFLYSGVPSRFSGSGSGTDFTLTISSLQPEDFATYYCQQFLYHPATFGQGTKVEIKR
notes: also called HZPDL1-H12
- EC50 (Human PD-L1 (R&D)): 1.4 pM
- EC50 (Mouse PD-L1 (R&D)): 0.483 pM
- EC50 (Monkey PD-L1 (R&D)): 0.551 pM
- Kd [1]: 2.19 nM
- koff [1]: 0.00261 s⁻¹
- kon [1]: 1.19e+06 M⁻¹ s⁻¹
